Measured values taken from US20260234255A1 (Genmab, published 2026).
Where a chain is given by its changes, count along the chain named.

T1: human CD30 (human, UniProt P28908 19-595)
T1 construct: also called huCD30; TNFRSF8
T1 sequence: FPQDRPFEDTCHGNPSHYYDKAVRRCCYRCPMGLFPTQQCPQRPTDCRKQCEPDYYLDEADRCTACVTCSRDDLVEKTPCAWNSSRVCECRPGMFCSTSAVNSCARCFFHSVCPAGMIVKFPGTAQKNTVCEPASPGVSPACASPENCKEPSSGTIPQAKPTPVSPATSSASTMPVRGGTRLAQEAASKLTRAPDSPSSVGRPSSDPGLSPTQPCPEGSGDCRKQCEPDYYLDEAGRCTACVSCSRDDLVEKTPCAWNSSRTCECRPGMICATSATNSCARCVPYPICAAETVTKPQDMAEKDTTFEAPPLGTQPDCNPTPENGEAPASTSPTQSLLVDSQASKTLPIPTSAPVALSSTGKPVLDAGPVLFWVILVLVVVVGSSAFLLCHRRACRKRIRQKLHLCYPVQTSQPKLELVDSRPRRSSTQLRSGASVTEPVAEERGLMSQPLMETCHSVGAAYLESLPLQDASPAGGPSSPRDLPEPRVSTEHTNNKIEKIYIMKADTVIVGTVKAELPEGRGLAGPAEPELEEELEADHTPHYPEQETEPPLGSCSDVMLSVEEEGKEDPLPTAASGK

B1: bsG1-huCD3-FEALxCD30-T405-FEAR (bispecific antibody, human IgG1, kappa, lambda)
heavy 1: not shown
light 1: not shown
heavy 2: QVQLQQIGAELVRPGASVKLSCKASGYTFNNYWINWVKQRPGQGLEWIGNIYPSDSRSNYNQKFKDKATLTVDKPSSTAYMQLSSPTSEDSAVYYCTLGSYWGQGTLVTVSAASTKGPSVFPLAPSSKSTSGGTAALGCLVKDYFPEPVTVSWNSGALTSGVHTFPAVLQSSGLYSLSSVVTVPSSSLGTQTYICNVNHKPSNTKVDKRVEPKSCDKTHTCPPCPAPEFEGGPSVFLFPPKPKDTLMISRTPEVTCVVVAVSHEDPEVKFNWYVDGVEVHNAKTKPREEQYNSTYRVVSVLTVLHQDWLNGKEYKCKVSNKALPAPIEKTISKAKGQPREPQVYTLPPSREEMTKNQVSLTCLVKGFYPSDIAVEWESNGQPENNYKTTPPVLDSDGSFFLYSRLTVDKSRWQQGNVFSCSVMHEALHNHYTQKSLSLSPG
light 2: DVVMTQTPLTLSVTIGQPASISCKSSQSLSDSDGKTYLNWLLQRPGQSPKRLIYLVSKLDSGVPDRFTGSGSGTDFTLKISRVEAEDLGVYYCWQGAHFPRTFGGGTKLEIKRTVAAPSVFIFPPSDEQLKSGTASVVCLLNNFYPREAKVQWKVDNALQSGNSQESVTEQDSKDSTYSLSSTLTLSKADYEKHKVYACEVTHQGLSSPVTKSFNRGEC
notes: Bispecific IgG1 made by controlled Fab-arm exchange; also called bsIgG1-huCD3-FEALxCD30-T405-FEAR
B2: bsG1-huCD3-FEALxCD30-HeFi-I-FEAR (bispecific antibody, human IgG1, kappa, lambda)
heavy 1: not shown
light 1: not shown
heavy 2: EVKLVESGGGLVQPGGSLRLSCATSGFTFSDYYMNWVRQPPGKALEWLGFIRNKANGYTTEFSASVMGRFTISRDDSQSILYLQMNTLRAEDSATYYCARDPPYGNPHYYAMDYWGQGTSVTVSSASTKGPSVFPLAPSSKSTSGGTAALGCLVKDYFPEPVTVSWNSGALTSGVHTFPAVLQSSGLYSLSSVVTVPSSSLGTQTYICNVNHKPSNTKVDKRVEPKSCDKTHTCPPCPAPEFEGGPSVFLFPPKPKDTLMISRTPEVTCVVVAVSHEDPEVKFNWYVDGVEVHNAKTKPREEQYNSTYRVVSVLTVLHQDWLNGKEYKCKVSNKALPAPIEKTISKAKGQPREPQVYTLPPSREEMTKNQVSLTCLVKGFYPSDIAVEWESNGQPENNYKTTPPVLDSDGSFFLYSRLTVDKSRWQQGNVFSCSVMHEALHNHYTQKSLSLSPG
light 2: not shown
notes: Bispecific IgG1 made by controlled Fab-arm exchange; also called BsIgG1-huCD3-FEALxCD30-HeFi-I-FEAR
B3: IgG1-CD30-HeFi-I-FEAR (antibody, V domains shown)
VH: EVKLVESGGGLVQPGGSLRLSCATSGFTFSDYYMNWVRQPPGKALEWLGFIRNKANGYTTEFSASVMGRFTISRDDSQSILYLQMNTLRAEDSATYYCARDPPYGNPHYYAMDYWGQGTSVTVSS
VL: DIVLTQSPASLAVSLGQRATISCRASKSVSASGYNYMHWYQQKAGQPPKLLIHLASNLESGVPARFSGSGSGTDFTLNIHPVEEEDASTYYCQHSGELPFTFGSGTKLEIKR
notes: Monospecific, bivalent parental antibody
B4: bsG1-huCD3-FEALxCD30-T215-FEAR (bispecific antibody, human IgG1, kappa, lambda)
heavy 1: not shown
light 1: not shown
heavy 2: not shown
light 2: DIVMTQSQKFMSTSVGDRVSVTCKASQNVFTNVAWYQQKLGQSPKPLIYSASYRYSGVPDRFTGSGSGTDFTLTISDVQSEDLAEYFCQQYNSYPVTFGAGTKLELKRTVAAPSVFIFPPSDEQLKSGTASVVCLLNNFYPREAKVQWKVDNALQSGNSQESVTEQDSKDSTYSLSSTLTLSKADYEKHKVYACEVTHQGLSSPVTKSFNRGEC
notes: Bispecific IgG1 made by controlled Fab-arm exchange; also called bsIgG1-huCD3-FEALxCD30-T215-FEAR
B5: bsG1-huCD3-FEALxCD30-hAC10-FEAR (bispecific antibody, human IgG1, kappa, lambda)
heavy 1: not shown
light 1: not shown
heavy 2: QVQLVQSGAEVKKPGASVKVSCKASGYTFTDYYITWVRQAPGQGLEWMGWIYPGSGNTKYNEKFKGRVTMTRDTSISTAYMELSRLRSDDTAVYYCANYGNYWFAYWGQGTLVTVSSASTKGPSVFPLAPSSKSTSGGTAALGCLVKDYFPEPVTVSWNSGALTSGVHTFPAVLQSSGLYSLSSVVTVPSSSLGTQTYICNVNHKPSNTKVDKRVEPKSCDKTHTCPPCPAPEFEGGPSVFLFPPKPKDTLMISRTPEVTCVVVAVSHEDPEVKFNWYVDGVEVHNAKTKPREEQYNSTYRVVSVLTVLHQDWLNGKEYKCKVSNKALPAPIEKTISKAKGQPREPQVYTLPPSREEMTKNQVSLTCLVKGFYPSDIAVEWESNGQPENNYKTTPPVLDSDGSFFLYSRLTVDKSRWQQGNVFSCSVMHEALHNHYTQKSLSLSPG
light 2: not shown
notes: Bispecific IgG1 made by controlled Fab-arm exchange
B6: IgG1-CD30-HRS-3-FEAR (antibody, V domains shown)
VH: QVQLQQSGAELARPGASVKMSCKASGYTFTTYTIHWVRQRPGHDLEWIGYINPSSGYSDYNQNFKGKTTLTADKSSNTAYMQLNSLTSEDSAVYYCARRADYGNYEYTWFAYWGQGTTVTVSS
VL: DIVMTQSPKFMSTSVGDRVTVTCKASQNVGTNVAWFQQKPGQSPKVLIYSASYRYSGVPDRFTGSGSGTDFTLTISNVQSEDLAEYFCQQYHTYPLTFGGGTKLEINR
notes: as for B3
B7: IgG1-CD30-hAC10-FEAR (antibody, V domains shown)
VH: QVQLVQSGAEVKKPGASVKVSCKASGYTFTDYYITWVRQAPGQGLEWMGWIYPGSGNTKYNEKFKGRVTMTRDTSISTAYMELSRLRSDDTAVYYCANYGNYWFAYWGQGTLVTVSS
VL: DIVMTQSPDSLAVSLGERATINCKASQSVDFDGDSYMNWYQQKPGQPPKLLIYAASNLESGVPDRFSGSGSGTDFTLTISSLQAEDVAVYYCQQSNEDPWTFGQGTKVEIKR
notes: as for B3
B8: IgG1-CD30-T215-FEAR (antibody, V domains shown)
VH: QVTLKESGPGILQPSQTLSLTCSFSGFSLSVSGMGVSWIRQPSGKGLEWLAHIHWDDDRRSNPSLRSRLTISKDTSNNQVFLKITSVDTADTATYYCARRPDLYGNYFFFDFWGQGTTLTVSS
VL: DIVMTQSQKFMSTSVGDRVSVTCKASQNVFTNVAWYQQKLGQSPKPLIYSASYRYSGVPDRFTGSGSGTDFTLTISDVQSEDLAEYFCQQYNSYPVTFGAGTKLELKR
notes: as for B3
B9: bsG1-huCD3-FEALxCD30-T408-FEAR (bispecific antibody, human IgG1, kappa, lambda)
heavy 1: not shown
light 1: not shown
heavy 2: B1 heavy 2 with I7P, N30T, N31S, R57Y, P75S
light 2: B1 light 2

These binders were tested against T1, human CD30 (assay: flow cytometry, Expi293F cells transfected with human CD30).
Procedure: Cells (3×10⁴ cells/well) were incubated in polystyrene 96-well round-bottom plates (Greiner bio-one, cat. no. 650180) with serial dilutions of antibodies (ranging from 0.005 to 10 μg/mL in 3-fold dilution steps) in 100 μL staining buffer at 4° C. for 30 min. Experiments were performed in technical duplicate. After washing twice in staining buffer, cells were incubated in 50 μL secondary antibody at 4° C. for 30 min. As a secondary antibody, R-PE-conjugated goat-anti-human IgG (Jackson ImmunoResearch, UK; cat. no. 109⁻¹¹⁶-098) diluted 1:400 in staining buffer was used. Cells were washed twice in staining buffer, resuspended in 30 μL staining buffer containing 0.4% EDTA and analyzed on an iQue Screener (Intellicyt Corporation, USA). Binding curves were analyzed using non-linear regression (sigmoidal dose-response with variable slope) using GraphPad Prism V9.0.0 software (GraphPad Software, San Diego, CA, USA).

| Binder | EC50 (read off the curve) [µg/mL] | binding result |
| --- | --- | --- |
| B1 | ~0.7 |  |
| B2 | ~0.1 |  |
| B3 |  | binds |

Each binder was assayed against T1, human CD30 (assay: flow cytometry, HDLM-2 cells).
Procedure: (§1) Binding of CD3×CD30 bispecific antibodies to two CD30-expressing human tumor cell lines SU-DHL-1 (ALCL; ATCC, cat. no. ACC 356) and HDLM-2 (HL; ATCC, cat. no. CRL-2965) was analyzed […] by flow cytometry.
(§2) Cells (3×10⁴ cells/well) were incubated in polystyrene 96-well round-bottom plates (Greiner bio-one, cat. no. 650180) with serial dilutions of antibodies (range 0.0046 to 10 μg/mL in 3-fold dilution steps) in 50 μL staining buffer at 4° C. for 30 min. After washing twice in staining buffer, cells were incubated with 50 μL secondary antibody at 4° C. for 30 min. […] Next, cells were washed twice in staining buffer, resuspended in 100 μL staining buffer supplemented with TO-PRO-3 iodide (Thermo Fisher Scientific; cat. no. T3605; 1:8000 dilution) and analyzed on a FACSCelesta flow cytometer (BD Biosciences, USA). Live cells were gated based on FSC/SSC and absence of TOPRO-3 staining. Binding curves were analyzed by non-linear regression of log-transformed data (sigmoidal dose-response with variable slope, four parameters) using GraphPad Prism V7.02 software (GraphPad Software, San Diego, CA, USA).

| Binder | EC50 (read off the curve) [µg/mL] |
| --- | --- |
| B4 | ~0.6 |
| B1 | ~1 |
| B5 | ~0.2 |
| B2 | ~0.3 |
| B6 | ~0.2 |
| B7 | ~0.1 |
| B8 | ~0.2 |

The binders below were run against T1, human CD30 (assay: cell-based or functional assay).

| Binder | T-cell mediated cytotoxicity of Karpas-299 cells, IC50 average [µg/mL] | T-cell mediated cytotoxicity of Karpas-299 cells, maximum lysis average [%] |
| --- | --- | --- |
| B4 | 0.077 | 42.8 |
| B1 | 0.078 | 41.7 |
| B9 | 0.226 | 41.3 |
| B2 | 0.052 | 43 |

What follows are binders tested against T1, human CD30 (assay: flow cytometry, SU-DHL-1 cells).
Procedure: as §1, §2

| Binder | EC50 (read off the curve) [µg/mL] |
| --- | --- |
| B5 | ~0.2 |
| B2 | ~0.3 |
| B6 | ~0.2 |
| B8 | ~0.1 |
